In FireProtDB (doi:10.1021/bi012084+):

Settings: Geobacillus stearothermophilus; pH 7.5; Thermal; DSC; KH2PO4/KOH 100 mM; reversible: no; whole UniProt chain shown

B1: Glyceraldehyde-3-phosphate dehydrogenase wild type, P00362 (protein)
chain: MAVKVGINGFGRIGRNVFRAALKNPDIEVVAVNDLTDANTLAHLLKYDSVHGRLDAEVSVNGNNLVVNGKEIIVKAERDPENLAWGEIGVDIVVESTGRFTKREDAAKHLEAGAKKVIISAPAKNEDITIVMGVNQDKYDPKAHHVISNASCTTNCLAPFAKVLHEQFGIVRGMMTTVHSYTNDQRILDLPHKDLRRARAAAESIIPTTTGAAKAVALVLPELKGKLNGMAMRVPTPNVSVVDLVAELEKEVTVEEVNAALKAAAEGELKGILAYSEEPLVSRDYNGSTVSSTIDALSTMVIDGKMVKVVSWYDNETGYSHRVVDLAAYIASKGL
unfolding enthalpy (calorimetric): 408 kcal/mol
